Publication PMC5134833, “The amyloid-beta forming tripeptide cleavage mechanism of γ-secretase” (eLife, 2016)

Biological target: T1, γ-secretase (Homo sapiens, UniProt P49768)
T1 construct: made in house; host or cells: suspension HEK cells (Freestyle 293), transiently transfected
Test: In vitro γ-secretase assay (purified γ-secretase in proteoliposomes cleaving recombinant C100-FLAG substrate)
Format: biochemical
Conditions: C100-FLAG 500 nM, Figure 1B, 1F
Experimental: Purified γ-secretase was incorporated into vesicles by first dissolving total brain lipid extract (1.25 mM final) in 50 mM HEPES pH 7.0, 150 mM NaCl, 0.25% CHAPSO. γ-Secretase (5–30 nM final concentration) was then added to the solution and detergent removed by mixing SM-2 biobeads (62 mg/mL) (Bio-Rad) with the lipid/detergent/enzyme solution for two hrs at 4°C. Biobeads were removed from the newly formed proteoliposomes and reactions were initiated with the addition of purified recombinant substrate C100-FLAG substrate. Reactions were quenched with SDS loading dye for western blot or centrifuged for ELISA or mass spectrometry on Aβ or AICD fragments, respectively.
For inhibition studies, tripeptide fragments or inhibitors were dissolved in DMSO prior to being diluted into the reaction buffer. The concentration of C100-FLAG used in all in vitro assays was 500 nM unless otherwise stated.
Tripeptide IC50 inhibition was fit to: vi/vo=1/(1+[I]/IC50)
Tripeptide inhibition was globally fit to the following noncompetitive equation: v= Vmax[S]/[S](1+[I]/Kii)+Km(1+[I]/Ki)
Inhibitor cross-competition was globally fit to: 1/vij=1/v0(1+[I]/Ki+[J]/Kj+[I][J]/αKiKj)

Row | Substance | inhibition of γ-secretase activity (relative potency in words)
1 | AFA: synthetic tripeptide predicted to clash with the S' pocket binding site | very weak inhibitor
2 | FAF: synthetic tripeptide of the predicted optimal binding sequence for the large-small-large S1'-S2'-S3' pockets | more potent inhibitor of γ-secretase activity than any of the naturally occurring APP-derived tripeptides
